This passage reports reduction of the increased T-cell proliferation supported by MC38/LFA-3 stimulator cells with Con A, reduction of the increased T-cell proliferation supported by MC38/ICAM-1 stimulator cells with Con A and inhibition of the increased T-cell proliferation supported by MC38/B7-1 stimulator cells with Con A results from EP1137792B9.

What all share (test): cell-based or functional assay
The target in assay [1] is murine LFA-3 (murine CD48) (murine) (UniProt P18181).
Assay [2] deals with murine Intercellular adhesion molecule-1 (ICAM-1; CD54) (murine) (UniProt P13597).
Assay [3] concerns the target murine B7-1 (CD80) (murine) (UniProt Q00609).
Sequence of UniProt Q00609 (Q00609 38-306): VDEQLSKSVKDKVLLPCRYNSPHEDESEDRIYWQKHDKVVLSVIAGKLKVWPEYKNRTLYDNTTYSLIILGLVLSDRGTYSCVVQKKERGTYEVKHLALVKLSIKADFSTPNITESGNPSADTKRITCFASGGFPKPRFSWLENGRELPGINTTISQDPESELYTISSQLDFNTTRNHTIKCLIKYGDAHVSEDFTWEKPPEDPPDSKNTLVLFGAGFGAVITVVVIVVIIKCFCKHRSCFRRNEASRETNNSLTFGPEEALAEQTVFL

Sequence of UniProt P13597 (P13597 28-537): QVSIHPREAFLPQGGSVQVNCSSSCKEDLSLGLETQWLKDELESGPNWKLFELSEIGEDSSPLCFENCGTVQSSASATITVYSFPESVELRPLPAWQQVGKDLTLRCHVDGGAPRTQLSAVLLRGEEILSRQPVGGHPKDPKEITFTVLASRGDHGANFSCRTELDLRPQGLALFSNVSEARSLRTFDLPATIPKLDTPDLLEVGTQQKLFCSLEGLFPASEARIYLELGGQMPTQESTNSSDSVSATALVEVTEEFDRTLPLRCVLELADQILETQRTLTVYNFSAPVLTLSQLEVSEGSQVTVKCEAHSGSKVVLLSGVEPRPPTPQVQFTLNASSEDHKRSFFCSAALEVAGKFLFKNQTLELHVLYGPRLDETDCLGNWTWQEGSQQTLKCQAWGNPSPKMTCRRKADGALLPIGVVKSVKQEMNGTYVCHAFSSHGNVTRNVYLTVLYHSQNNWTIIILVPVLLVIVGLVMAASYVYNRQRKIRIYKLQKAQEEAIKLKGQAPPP
Sequence of UniProt P18181 (P18181 23-217): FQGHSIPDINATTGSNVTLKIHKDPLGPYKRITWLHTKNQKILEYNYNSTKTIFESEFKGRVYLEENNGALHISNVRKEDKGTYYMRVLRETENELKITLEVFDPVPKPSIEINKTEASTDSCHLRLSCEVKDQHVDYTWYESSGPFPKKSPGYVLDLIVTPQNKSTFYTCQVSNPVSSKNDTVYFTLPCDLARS

In the case of “Hamster anti-murine CD48 (BCM-1; clone HM48-1) (antibody)”, in assay [1], the reduction of the increased T-cell proliferation supported by MC38/LFA-3 stimulator cells with Con A came out at 98%.

“Hamster anti-murine CD54 (ICAM-1; clone 3E2) (antibody)” yielded a reduction of the increased T-cell proliferation supported by MC38/ICAM-1 stimulator cells with Con A in assay [2] of 88%.

In assay [3], “Hamster anti-murine CD80 (B7-1; clone 16-10A1) (antibody)” returned an inhibition of the increased T-cell proliferation supported by MC38/B7-1 stimulator cells with Con A of 83%.
